What all share (details): chain copies: 4 (inferred)
The target in data set [1] is T1, GluA2Qflip AMPA receptor subunit (Rattus norvegicus, UniProt P19491-2 P19491-2:22-883). As to the kind of experiment: competition; open-channel conformation; homologous competition with radiolabeled AF44.
Data set [2] deals with T1, GluA2Qflip AMPA receptor subunit. As to the kind of experiment: competition; unliganded closed-channel conformation; homologous competition with radiolabeled AF44.
Data set [3] has the same target. As to the kind of experiment: competition; closed-channel conformation; homologous competition with radiolabeled AF42.
Data set [4] has the same target. The data set is described as follows: competition; open-channel conformation; homologous competition with radiolabeled AF42.

T1 sequence (P19491 other isoform, or with tags, fused parts or gaps): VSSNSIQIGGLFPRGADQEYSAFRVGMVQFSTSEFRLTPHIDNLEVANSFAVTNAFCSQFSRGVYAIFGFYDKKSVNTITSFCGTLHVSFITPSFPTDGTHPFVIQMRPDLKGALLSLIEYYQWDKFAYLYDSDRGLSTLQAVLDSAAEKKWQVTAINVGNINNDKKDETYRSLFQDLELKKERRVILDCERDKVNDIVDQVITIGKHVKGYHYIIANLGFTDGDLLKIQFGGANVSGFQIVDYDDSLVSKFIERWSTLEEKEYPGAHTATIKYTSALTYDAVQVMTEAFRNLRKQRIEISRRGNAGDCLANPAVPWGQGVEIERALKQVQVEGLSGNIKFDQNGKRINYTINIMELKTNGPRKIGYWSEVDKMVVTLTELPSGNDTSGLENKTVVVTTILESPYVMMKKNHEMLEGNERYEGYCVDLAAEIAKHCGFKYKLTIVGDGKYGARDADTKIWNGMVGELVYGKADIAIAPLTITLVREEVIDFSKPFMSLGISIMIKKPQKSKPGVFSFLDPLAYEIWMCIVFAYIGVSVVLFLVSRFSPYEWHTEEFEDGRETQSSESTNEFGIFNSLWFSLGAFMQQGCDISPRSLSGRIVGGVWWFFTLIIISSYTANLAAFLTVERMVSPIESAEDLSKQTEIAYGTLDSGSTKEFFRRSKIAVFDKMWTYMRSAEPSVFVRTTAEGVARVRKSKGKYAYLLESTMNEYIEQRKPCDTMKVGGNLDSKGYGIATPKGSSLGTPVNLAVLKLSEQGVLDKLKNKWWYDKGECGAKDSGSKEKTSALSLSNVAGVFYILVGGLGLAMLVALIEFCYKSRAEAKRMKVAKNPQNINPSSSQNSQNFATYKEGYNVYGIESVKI

In the case of GGGAGAAUUCAACUGCCACGGAUAAUAGCCAAUACUACAACCGU (ssRNA) [AF44 (A22)], the values for the Kd in data set [1] and in data set [2] were 48 nM and 44 nM, respectively.

Consider GGGAACGGUGCCAGUCCGAAACGGAUCGUUAGAGCAUCAGUA (ssRNA) [AF42], for which the Kd in data set [3] amounted to 57 nM; in data set [4], 44 nM.

In general, Kd refers to a measure of binding affinity in units of concentration. A low value points to tighter binding.

For the origin of these results see patent US20130289100 (The Research Foundation for the State University of New York, published 2013).
